From patent publication US20070036794A1 (Genentech, published 2007)
Substitutions are numbered along the chain they refer to.

B1: anti-trkC agonist monoclonal antibody 6.4.1 (antibody, human IgG2, V domains shown)
VH: QVQLQESGPGLVRPSETLSLTCTVSGGSISTYYWNWIRQPAGKGLEWIGRIYTSGSTNYNPSLKSRVTMSVDTSKNQFSLKLSSVTAADTAVYYCARDGGYSNPFDWGQGTLVTVSS
VL: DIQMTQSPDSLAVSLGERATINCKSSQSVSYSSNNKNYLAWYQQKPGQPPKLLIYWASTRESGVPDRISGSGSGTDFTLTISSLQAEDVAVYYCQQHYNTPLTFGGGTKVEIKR
notes: human IgG2 from Xenomouse hybridoma; heavy chain subgroup II, light chain kappa I; also called Mab 6.4.1
B2: anti-trkC agonist monoclonal antibody 2345 (antibody, human IgG2, V domains shown)
VH: QVQLQESGPGLVKPSQTLSLTCTVSGGSISSGGYYWSWIRQHPEKGLEWIGYIFYSGRTYYNPSLKSRVTISVDTSKNQFSLKLNSVTAADTAVYYCARERIAAAGADYYYNGLDVWGQGTTVTVSS
VL: EIVLTQSPGTLSLSPGERATLSCRASQSVSSNYLTWYQQKPGQAPRLLIYGASSRATGIPDRFSGSGSGTDFTLTISRLEPEDFAVYYCQQYGRSPPITFGQGTRLEIKR
notes: human IgG2 from Xenomouse hybridoma; heavy chain subgroup II, light chain kappa III
B3: anti-trkC agonist monoclonal antibody 2349 (antibody, human IgG4, V domains shown)
VH: B2 VH with G33Y, E44G, F54Y, R58S, V69L, N85S, A107T, D115A
VL: B2 VL with E1G, L21F, V29G, N32T, T35A
notes: human IgG4 from Xenomouse hybridoma; heavy chain subgroup II, light chain kappa III
B4: anti-trkC agonist monoclonal antibody 2256 (antibody, mouse IgG1, V domains shown)
VH: QVQLQQPGAELVKPGASVKLSCKASGYTFTSYWMHWVKQRPGQGLEWIGEIYPSNGRTNYNEKFKSKATLTVDKSSSTAYMQLSSLTSEDSAVYYCARKYYYGNSYRSWYFDVWGAGTTLTVSS
VL: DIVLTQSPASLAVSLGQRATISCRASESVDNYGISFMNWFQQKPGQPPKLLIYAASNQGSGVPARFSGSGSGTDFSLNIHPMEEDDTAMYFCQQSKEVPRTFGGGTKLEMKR
notes: murine IgG1; heavy chain subgroup IIA, light chain kappa III
B5: anti-trkC agonist monoclonal antibody 2253 (antibody, mouse IgG1, V domains shown)
VH: QVQLQQSGAELMQPGASVKISCKSTGYTFSNFWIEWVKQRPGHGLEWIGEILPGSDNTNYNEKFKGKATFTADTSSNTAYMQLSSLTSEDSAVYYCARKNRNYYGNYVVWGAGTTLTVSS
VL: QIVLTQSPAIMSASPGEKVTITCSASSSVSYMYWFQQKPGTSPKLWIYSTSNLASGVPARFSGSGSGTSYSLTISRMEAEDAATYYCQQRSSYPLTFGAGTKLELKR
notes: murine IgG1; heavy chain subgroup IIA, light chain kappa IV
B6: neurotrophin-3 (NT-3) (ligand, UniProt P20783 139-257, looked up)
chain: YAEHKSHRGEYSVCDSESLWVTDKSSAIDIRGHQVTVLGEIKTGNSPVKQYFYETRCKEARPVKNGCRGIDDKHWNSQCKTSQTYVRALTSENNKLVGWRWIRIDTSCVCALSRKIGRT

target: T1, gD-tagged trkC (human trkC-gD) (human, UniProt Q16288 32-429); experiment: competition ELISA on gD-trkC; competitor: unlabelled 2349 (50 µg/ml); biotin-MAb 1 µg/ml; SA-HRP;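 further: negative control competitors were unlabelled human IgG2 and mouse IgG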
T1 construct: purified antigen of the ELISAs and SPR; also called gD-trkC
T1 sequence (Q16288 32-429 S70N): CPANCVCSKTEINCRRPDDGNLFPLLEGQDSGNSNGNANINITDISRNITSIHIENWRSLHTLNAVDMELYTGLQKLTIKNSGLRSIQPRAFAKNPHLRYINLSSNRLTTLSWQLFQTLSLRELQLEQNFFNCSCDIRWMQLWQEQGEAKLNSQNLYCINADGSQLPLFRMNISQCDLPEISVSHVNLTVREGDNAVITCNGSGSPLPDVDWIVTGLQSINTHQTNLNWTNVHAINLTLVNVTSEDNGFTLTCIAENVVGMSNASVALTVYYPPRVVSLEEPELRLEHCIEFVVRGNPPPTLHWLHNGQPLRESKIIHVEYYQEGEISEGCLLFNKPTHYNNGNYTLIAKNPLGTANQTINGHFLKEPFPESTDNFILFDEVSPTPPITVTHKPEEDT
Protocol: (§1) A competition ELISA was used to get preliminary information about various groups to which these antibodies belong depending on the epitope(s) on trkC they recognize. In this assay, trkC-gD (1 μg/ml) was used as a capture antigen to coat microliter plate. A specific biotinylated anti-trkC monoclonal antibody (1 μg/ml) was added to the coated plate either alone or in presence of another anti-trkC monoclonal antibody that was unlabeled and used in excess (50 μg/ml) as compared to the labeled antibody. If biotinylated antibody and unlabeled antibody both recognize the same or overlapping epitope, they will compete for binding to the immobilized trkC, resulting in decreased binding of the labeled antibody. If they recognize different and non-overlapping epitopes, there will be no competition between them, and the binding of the labeled antibody to the immobilized trkC will not be affected. Unlabeled human IgG2 and mouse IgG were used as negative control.

Row | Binder | signal of the biotin-MAb in the competition ELISA
1 | B1 | 0.1
2 | B2 | 0.02
3 | B3 | 0
4 | B4 | 0.07

target: T2, trkC mutant E287K (human, UniProt Q16288 32-429, limits assumed); experiment: binding to trkC point mutants (NB = no binding observed)
T2 construct: point mutant in domain 5
T2 sequence (Q16288 32-429 S70N/E318K limits assumed): as the sequence (Q16288 32-429 S70N) above, with E287K counted along it

Row | Binder | binding result
5 | B1 | no binding
6 | B2 | no binding
7 | B3 | no binding

target: T3, trkC mutant N335A (human, UniProt Q16288 32-429, limits assumed); experiment: as above
T3 construct: point mutant in domain 5
T3 sequence (Q16288 32-429 S70N/N366A limits assumed): as the sequence (Q16288 32-429 S70N) above, with N335A counted along it

Row | Binder | binding result
8 | B2 | no binding

target: T4, trkC mutant L286H (human, UniProt Q16288 32-429, limits assumed); experiment: as above
T4 construct: point mutant in domain 5
T4 sequence (Q16288 32-429 S70N/L317H limits assumed): as the sequence (Q16288 32-429 S70N) above, with L286H counted along it

Row | Binder | binding result
9 | B1 | no binding

target: T5, trkC mutant L284E (human, UniProt Q16288 32-429, limits assumed); experiment: as above
T5 construct: point mutant in domain 5
T5 sequence (Q16288 32-429 S70N/L315E limits assumed): as the sequence (Q16288 32-429 S70N) above, with L284E counted along it

Row | Binder | binding result
10 | B1 | no binding
11 | B2 | no binding
12 | B3 | no binding

target: T6, trkC mutant R285A (human, UniProt Q16288 32-429, limits assumed); experiment: as above
T6 construct: point mutant in domain 5
T6 sequence (Q16288 32-429 S70N/R316A limits assumed): as the sequence (Q16288 32-429 S70N) above, with R285A counted along it

Row | Binder | binding result
13 | B4 | no binding

target: T2, trkC mutant E287K; experiment: binding titration on trkC point mutants

Row | Binder | ratio EC50 mutant/EC50 wildtype trkC [ratio]
14 | B4 | 0.7
15 | B5 | 0.7

target: T7, trkC mutant H318A (human, UniProt Q16288 32-429, limits assumed); experiment: binding titration on trkC point mutants
T7 construct: point mutant in domain 5
T7 sequence (Q16288 32-429 S70N/H349A limits assumed): as the sequence (Q16288 32-429 S70N) above, with H318A counted along it

Row | Binder | ratio EC50 mutant/EC50 wildtype trkC [ratio]
16 | B1 | 0.7
17 | B2 | 1
18 | B3 | 0.7
19 | B4 | 0.8
20 | B5 | 0.8

target: T3, trkC mutant N335A; experiment: binding titration on trkC point mutants

Row | Binder | ratio EC50 mutant/EC50 wildtype trkC [ratio]
21 | B1 | 0.3
22 | B3 | 1.5
23 | B4 | 0.5
24 | B5 | 0.5

target: T4, trkC mutant L286H; experiment: binding titration on trkC point mutants

Row | Binder | ratio EC50 mutant/EC50 wildtype trkC [ratio]
25 | B2 | 0.5
26 | B3 | 0.6
27 | B4 | 0.6
28 | B5 | 0.4

target: T5, trkC mutant L284E; experiment: binding titration on trkC point mutants

Row | Binder | ratio EC50 mutant/EC50 wildtype trkC [ratio]
29 | B4 | 1.1
30 | B5 | 0.7

target: T6, trkC mutant R285A; experiment: binding titration on trkC point mutants

Row | Binder | ratio EC50 mutant/EC50 wildtype trkC [ratio]
31 | B1 | 0.8
32 | B2 | 1
33 | B3 | 0.9
34 | B5 | 0.9

target: T1, gD-tagged trkC (human trkC-gD); experiment: competition ELISA on gD-trkC; competitor: unlabelled 6.1.2 (50 µg/ml); biotin-MAb 1 µg/ml; SA-HRP;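 further: negative control competitors were unlabelled human IgG2 and mouse IgG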
Protocol: as §1

Row | Binder | signal of the biotin-MAb in the competition ELISA
35 | B2 | 0.11
36 | B3 | 0.04
37 | B4 | 0.13

target: T1, gD-tagged trkC (human trkC-gD); experiment: competition ELISA on gD-trkC; competitor: unlabelled 2345 (50 µg/ml); biotin-MAb 1 µg/ml; SA-HRP;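 further: negative control competitors were unlabelled human IgG2 and mouse IgG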
Protocol: as §1

Row | Binder | signal of the biotin-MAb in the competition ELISA
38 | B1 | 0.12
39 | B2 | 0.04
40 | B3 | 0.01
41 | B5 | 1.4

target: T1, gD-tagged trkC (human trkC-gD); experiment: competition ELISA on gD-trkC; competitor: unlabelled 2256 (50 µg/ml); biotin-MAb 1 µg/ml; SA-HRP;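 further: negative control competitors were unlabelled human IgG2 and mouse IgG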
Protocol: as §1

Row | Binder | signal of the biotin-MAb in the competition ELISA
42 | B1 | 0.1
43 | B3 | 0.02
44 | B4 | 0.02
45 | B5 | 1.34

target: T1, gD-tagged trkC (human trkC-gD); experiment: SPR (BIAcore), IgG over immobilized gD-trkC (400-600 RU)

Row | Binder | Kd [nM]
46 | B1 | 12
47 | B2 | 12
48 | B3 | 23
49 | B4 | 62
50 | B5 | 42

target: T1, gD-tagged trkC (human trkC-gD); experiment: SPR (BIAcore), gD-trkC over immobilized IgG

Row | Binder | Kd [nM]
51 | B1 | 28
52 | B4 | 300
53 | B5 | 51

target: T1, gD-tagged trkC (human trkC-gD); experiment: competition ELISA on gD-trkC; competitor: unlabelled 6.4.1 (50 µg/ml); biotin-MAb 1 µg/ml; SA-HRP;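 further: negative control competitors were unlabelled human IgG2 and mouse IgG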
Protocol: as §1

Row | Binder | signal of the biotin-MAb in the competition ELISA
54 | B1 | 0.07
55 | B3 | 0.03
56 | B4 | 0.12

target: T1, gD-tagged trkC (human trkC-gD); experiment: competition ELISA on gD-trkC; competitor: unlabelled 2250 (50 µg/ml); biotin-MAb 1 µg/ml; SA-HRP;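 further: negative control competitors were unlabelled human IgG2 and mouse IgG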
Protocol: as §1

Row | Binder | signal of the biotin-MAb in the competition ELISA
57 | B1 | 0.1
58 | B2 | 0.04
59 | B3 | 0.02
60 | B4 | 0.01
61 | B5 | 1.24

target: T1, gD-tagged trkC (human trkC-gD); experiment: competition ELISA on gD-trkC; competitor: unlabelled 2253 (50 µg/ml); biotin-MAb 1 µg/ml; SA-HRP;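 further: negative control competitors were unlabelled human IgG2 and mouse IgG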
Protocol: as §1

Row | Binder | signal of the biotin-MAb in the competition ELISA
62 | B1 | 0.03
63 | B2 | 0.07
64 | B3 | 0.03
65 | B4 | 0.02
66 | B5 | 0

target: T8, trkC fused with a gD flag epitope, on stably transfected CHO cells (KIRA); experiment: cell-based or functional assay

Row | Binder | EC50 (read off the curve), trkC tyrosine phosphorylation, KIRA [nM]
67 | B6 | 5 to 9
68 | B4 | ~4

target: wildtype trkC (reference of Table 5) (human, UniProt Q16288 32-429, limits assumed); experiment: binding titration on trkC point mutants; wildtype reference row
Sequence (Q16288 32-429 S70N limits assumed): as the sequence (Q16288 32-429 S70N) above

Row | Binder | ratio EC50 mutant/EC50 wildtype trkC [ratio]
69 | B1 | 1
70 | B2 | 1
71 | B3 | 1
72 | B4 | 1
73 | B5 | 1

target: T1, gD-tagged trkC (human trkC-gD); experiment: SPR (BIAcore), summary table

Row | Binder | Kd [nM]
74 | B1 | 12
75 | B2 | 12.1
76 | B3 | 23
77 | B4 | 62
78 | B5 | 42

target: T1, gD-tagged trkC (human trkC-gD); experiment: competition ELISA on gD-trkC; competitor: unlabelled 2.5.1 (50 µg/ml); biotin-MAb 1 µg/ml; SA-HRP;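 further: negative control competitors were unlabelled human IgG2 and mouse IgG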
Protocol: as §1

Row | Binder | signal of the biotin-MAb in the competition ELISA
79 | B2 | 0.17
80 | B5 | 1.4

target: T8, trkC fused with a gD flag epitope, on …; experiment: cell-based or functional assay; remark: another data set of the same source

Row | Binder | EC50 (read off the curve), trkC tyrosine phosphorylation, KIRA [nM]
81 | B1 | ~3
82 | B2 | ~2
83 | B3 | ~3
84 | B6 | 5 to 9
